Test results as given in the NTF2 design screens of Basanta et al. (2020).

experiment: protease stability score; higher = more stable; yeast display proteolysis, trypsin and chymotrypsin;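 note: relative to predicted unfolded state with 0 unfolded-like and 1 meaning tenfold more protease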

| Sequence | protease stability score |
| --- | --- |
| SEEDEFNREMRREIIEAWETGDFRIIEKLLDPNAKVVVGDYIDHGRHAIEVWLKRYDVRRRRDYKHVEVYDGVIRSDVRMDGEINGQRKITSVHIIFVIINGRIHQVEIHIH | 1.25 |
| SEEEKELREIMKVFKDAFLTGNEDLLRQLMDPHVRFHIGDKKNHGWEALHEYLLRIDHLDDLHSHLTEVHIQGDKVKIDGHLHMVERYGDFRFEREIRVHIVIEKINGRWIIEEVHFI | 1.35 |
| NEREEHIRRLAELVRELIDTGDFDRLIKNADPNVRLEMEIGDKRIEHHGRERVHEQLEEFERRFKNATFIWKRIDVQGEKVLLDGTIRINGQEHEMHWDNQMFNGRIHSIRIDVR | 2.2 |
| DEDEHYAREAVHLVYEILHTGDEHELMKYADPDTRIDIGDKTHIGRDRVVEAIHKMHKKLGVDHEVLTDSKVHWQGNKIEIYLKIEIHVGDKRFEMDIIIHLEKINGRWRVKSMRIDFR | 1.33 |
| SEEEQHFRELLHHILENMYTGDWRSLEKNADPHARLFYYQGDKYELYIGMHEWRRLLHHMHERFRNARFQIDEWHVQGDYFKIVESLDYGDKHIDIRVHIQYVNGRLKEMHIHIH | 1.24 |
| DEDEEQARRLAELIRHLLITGDEYVNRKMADPRVQFILHQGDKNYLHHGRDEVVRRLRELWEEWGFDQIHVNLDDVKIVNGRVIIHTRLQVGDKHMELRFIIEKIDGKWLVTHEQIHLH | 1.62 |
| DEHHRLARDFWKMLADILKTGDEEIFRDLADPDTRMIQGDKLYHGRELISRELVRQVKEWRLHDFELHHIDEVNGRLLVDSRLVGHFDGRHYLMHVRIFMHKVDGRWVLHEMHYE | 1.38 |
| KEKEEIARMMLKELIKTIRTGDPEEWHKLFDPHVLIVIDGREIHGMEEHTRLLRELGIDRIELHTQHERHVSVQGDKVHLDIDVDGMFDGQKRRFHMHIDALKVNGQWVIQYIEIR | 1.96 |
| DEDEESLRRMTTLLLYLWLTGDFEEMQKLADPRVKLDAENRNVHGREEWYEFMKRLGVKHSEVHHLRVINGRIDVETRVDVDGQEVRIRFIIDKVDGRWFLRRVYVH | 1.85 |
| DEDQEIVERFTSLINHLILTGDEEEMKKLLDPNARWIYGDKHIHGRDEFIELLRQIKNVKTRFYIRHIDVINGKLVMHVEIELEFNGKRDHLRQIIISEKVDGRWRAKEFETR | 0.66 |
| DEDRRLMEELTRHRIDLKKTGNEELLRTLADPNTRALVNGKDMHGREQIATWLWQFREDLGVDHIDLEDFHVQGDKMEVHLDWKVNGQRIEVIVIIYIVDGRIKKEEMHFT | 0.416 |
| DEIREEMEKVFRVFIHNMFTGDFEKLEELADPNARSKVDGVDDHGMHKFLRHWLHHVRRYGMKVEFEVHHIDVQGDKVQIDTRIVIDYNGRRFEWKSELIAVKIDGQWLIKRIIIH | 1.6 |
| SEDEELVELMMKLIMELRKTGDEESIRRLADPNVRLDFNGRDNHGREHATKWIRDIVEHLRLRRFEIHNVEFQGNKAVVRSRIIMDWDGQDFHLDVIIILNKFNGRWFIHSQIVH | 1.49 |
| DKEDREAHFLARLFLKIEETGDEETMHKYFDPHVRWIQGDWHMHGREDIIEFVRHMGVTIQMHDHEDIKVFDGRVQIKGHKRVNINGKQFEISVRIDINVINGRIRKVQIDEK | 1.32 |
| SEEERDAHEAWRLILETNLTGDEDFSANLMDPDVRITINGRHLHGRELVLRFLNEWRIEFHRVEIKDYEVQGDYVIIIGHMDGILKVDGKEIRFTSDVSIISVKVNGRWLIREIHIK | 2.7 |
| DENEHQTRIWNEIFIKIFLTGDWKRLSDMADPHVRSIINGQDLHGMENLSKIVEEIREELRVRSVHLHDIKVINGVAKVDTRLDMEYGDKRTDYNIEIHTLKVDGRWHLKEIKLV | 0.292 |
| HEEEEFSRRLAEMLFEFWLTGDEDALERLIDPNARVEMSINGRDFHTHGRDHIIEWVRKIKNLVFRIRRVEIQGEKIILDGEFDVNGVRTRWKLNLVFIDGVVHRLNIIHV | 1.72 |
| DEEEEFLHTLLRIFVEALMTGDEELLKKLADPHTKVRFNGQERHGWHAIQWMIEFFKNVRIEIHDMHIQGDKVHIDGRLKQGDKKLEMRIIIVIVNGKVHNEEYDLR | 1.12 |

| Sequence | protease stability score |
| --- | --- |
| REQEEFSENAIKLWEHLTKTGDEEKMTKLMDPHARLDVNGQQLVGRELIEKIIREILKRIDHLDHIEFEHIDNQGEKVIIHSRVIFIFNGRKIDTEVHVIMIKINGQWRIESMTEK | 1.18 |
| DEEKKEIQKAVDLMRHLLVTGDENTLHHLLDPNVRLIVGDKFFHGREELIRVWSEEIESMGFDHVEMHVRHVRVIGDKADVQMEIRFDVNGREHSREFRVRLRKIDGQWVIKSIEIR | 2.15 |
| SEDEHLAERMVHLWNKILLTGNEEIMEKLFDPNTRVIVGDKEYVGREVFLHLVKEIRKRADHIEIRIQHLEVQGDKVHLHGILIFRQGDKSDEQRVHLHSEKVNGRWFLREFRFE | 2.3 |
| HEEDKWMKEVLYRFYEHYQTGDEDSLVKLMDPHAKLSFEGRENHGRDAIKTYWDIMGFDHLRLRDYEIRIIDGRAHLIVDTEIEIGDKRRRTIIIMHVLKFNGRWIVTHFHVEVR | 0.835 |
| DEVDDEVDKMLEFVLDSWETGDEHINRDLMDPNVLVEAENRTLIGREWAEEFLHSIKKRFPNMRVQLHDMRVVGDKVELDTELRYGEYHNRTHIIALKVNGKWLVEKVHFH | 1.13 |
| TELDKHLEDFAREFLHAFLTGDEDELRRLLDPNVKFEHDFDGVRFENHGMSALKEFWERVDVIDRFEIHEVRTQGDFIELVFHIDGWVNGRHKRTDSRILLVVINGKIKTIHVKIK | 2.15 |
| DEETKETIELMEKFRQDEETGDWRSLHRMADPHTKLVVDGREYHGMEHATTYLVEFIEHFGVKHFHIEDSHVVDGRIVLHTRVEVGDKSREIRIVALKINGVWLMQSIEIG | 0.102 |
| NEEEHFMKEALEIWLHFFRTGDERDIQREFDPNARFEFENHTSHGRESVRELLTRLFHDLGINHVQFESIRVQGDKVEIHGHFFVDGRRYDFEMNSVKINGRWLNHTIRLR | 1.12 |
| DEEEKRAHEIVRRFLKWFLTGDEEASRKNMDPSVIMVINIGDKRIELHGMEQVSEFWHETVRRYDHIDIKLKDIEVQGDKAVTHGHLELRVGDKRFETDVQIILIYIDGRISFMSVNIV | 2.48 |
| SELEEWLFHFVKRFIRAELTGDEEEMLHLLDPNARMIIGDKHIHGRENIMELVRHFWHEIRIDHIEIKHVDFQGDKVIIHGQSDGQINGQRTTVDVRIQLIIINGRLKLLEFDNR | 1.71 |
| SDELEEALKWLEELMRLTLTGNWDRLDELVDPNAKEVINGKELHGMHFFRRVLHEIRFTHIDVQDIRLQGNYVEVDLRVEGNIDGRHVDLHTEVILLKVNGRWLHKMRILR | 1.56 |
| SESEEFLEKAYRLIEESLRTGDFREMLSNIDPNARFRYGNFDFHGRENLEFMLKELSKRIDHFHNSHIRRVNVINGRMHLHTSMHVEYDGKKEEVETEWVLLKVDGQWLIKEVTVI | 2.51 |
| SEEEKRNHEIAKKFIEAFETGDEDFVNHMADPHVKIIVDGVELHGRDQLHHVRKWLEERYPNVRWHLDDMRVQGNKVFLETTLHVGDKTRKSEIILIVINGRLKEIEMRIR | 1.92 |
| DEDEKMAREFVELWVHLLSTGNEDLEKHLVDPHVRVDINGQEIHGRNHLITFLIQIKNLTFEFRHVRITVVGDKIQVHIHGIVQVNGQWREVMIDFEAEKINGRWLQKQFHVKIH | 1.96 |
| DKREHDMERWFKLWWHTLMTGDEDLYHELLDPNARIVQGEKHHHGRENLVEYFTHLVEEMRIRHFHLHDMRFQGEKNDIDGHIDITINGQRHDTRFTIHLLIVNGKLRHVELRIL | 0.506 |
| DESTEHLHRFFDLLIEWIRTGDEESLNKNADPNTRVEAENHEEHGREKFSKHLSEIMTHMRSHFVLRHVSFVGDKAIFDVEVIIIVNGREIKVRTFIIVVKINGRWLLKSVHIE | 1.6 |
| SELERHAKEIAKIFSEVESTGDEDRMWELVDPDVRLHVGDKEFHGMEWVITLIREHLRHIRLKHVEITHIRVIDGRVDVDTRIHGIINGRELVTKSRIIIDKINGRWLVSSLKYE | 1.15 |
| EELERDSKEVAERLLWDTLTGDEDLLLHLMDPHVRHIVNGVKLHGREALERAIEEHLSHLGIDHIRIRHIDFRIINGKMDVHIHGESIYNGRVVHMIIIFISTKVNGKWVLEELSIEIR | 1.85 |
